Assay results: US6214569A, “Methods for screening for inhibitors of Alzheimer β-peptide filament formation” (President and Fellows of Harvard College, priority 1997, dated 2001)
Entries after “also recorded” stand apart in the source; their conditions may differ.

B1: α1 -ACT: protease inhibitor α1-antichymotrypsin, amyloid associated protein (protein, UniProt P01011 24-423, looked up)
Alpha-1-antichymotrypsin: HPNSPLDEENLTQENQDRGTHVDLGLASANVDFAFSLYKQLVLKAPDKNVIFSPLSISTALAFLSLGAHNTTLTEILKGLKFNLTETSEAEIHQSFQHLLRTLNQSSDELQLSMGNAMFVKEQLSLLDRFTEDAKRLYGSEAFATDFQDSAAAKKLINDYVKNGTRGKITDLIKDLDSQTMMVLVNYIFFKAKWEMPFDPQDTHQSRFYLSKKKWVMVPMMSLHHLTIPYFRDEELSCTVVELKYTGNASALFILPDQDKMEEVEAMLLPETLKRWRDSLEFREIGELYLPKFSISRDYNLNDILLQLGIEEAFTSKADLSGITGARNLAVSQVVHKAVLDVFEEGTEASAATAVKITLLSALVETRTIVRFNRPFLMIIVPTDTQNIFFMSKVTNPKQA

Assays:
Aβ1-42 [1] = target: T1, Aβ1-42 (Homo sapiens, UniProt P05067); assay: Aβ filament formation quantitated by electron microscopy (filament crossovers); assay type: biochemical; conditions: molar ratio 4:1, 18 hours
T1 sequence (P05067 672-713): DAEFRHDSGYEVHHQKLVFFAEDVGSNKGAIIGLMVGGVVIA
Description: At 18 hours, filaments were applied to carbon-coated Formvar on 200 mesh copper grids, dried, negatively stained with 3% uranyl acetate and visualized in a JEOL-100CX electron microscope. Many small and a few large filaments were visible in the electron micrograph and are representative of the products of this polymerization reaction.
The degree of filament formation was analyzed using electron microscopy. The reaction mixture was diluted with water or buffer. A Formvar-coated copper electron microscope grid was touched briefly to a droplet of the reaction mixture, allowing the filaments to stick to the Formvar plastic film. This procedure was also performed with Formvar which was precoated with carbon prior to the sticking of the filaments to the surface. The filaments were then stained with either a solution of uranyl acetate or sprayed ("shadowed") with a heavy metal such as platinum to allow their visualization.
The Aβ1-42 peptide was incubated in the presence of purified Apolipoproteins E2, E3 and E4 and α1 -ACT, ApoAI and ApoAII at a molar ratio of 4:1, as described in Examples 1 and 2. Electron microscopic examination of the reaction products was used to quantitate the amount of Aβ filament formation from the reaction of Aβ with ApoE3, ApoE4 or α1 -ACT. Five randomly chosen electron micrographs of each reaction product after 18 hours of incubation as in Examples 1 and 2 were analyzed by counting the number of crossovers that the filaments underwent with each other. This provides a measure of both the number and length of the amyloid filaments per unit area of the grid. […] The formation of Aβ filaments was inhibited when ApoE4 was incubated with Aβ in the presence of ApoE2 and equimolar amounts of ApoE4 and ApoE2 were used. Reducing the amount of Aβ filament formed to levels produced by the control protein, BSA (see FIG. 3).

α1 -ACT [2] = target: T2, α1 -ACT (Homo sapiens, UniProt P01011); conditions: disclosed in U.S. Ser. No. 08/179,574; cited from earlier work
T2 sequence (P01011 24-423): B1 Alpha-1-antichymotrypsin

α1 -ACT [3] = target: T2, α1 -ACT; conditions: disclosed in U.S. Ser. No. 08/179,574; cited from earlier work; remark: listed apart in the source
human cortical neurons = assay: Neurotoxicity of Aβ filaments formed with promoting factors, MTT assay (Example 4); assay type: cell-based; conditions: applied day 12, MTT day 16
Description: Certain promoters of the assembly of Aβ filaments of amyloid filaments formed in vitro also result in these filaments being neurotoxic. This was determined by using fetal human cortical tissue from 18-22 week gestation were used for this study. The protocol obtaining postmortem fetal tissue complied with all federal guidelines for federal research. The cortical cell culture were prepared as follows. The frontal and temporal lobes were removed from fetal brain. Cells were disassociated in calcium and magnesium free Hank's balanced salt solution containing 0.2% […] for 10 minutes at room temperature, and subsequently disassociated in serum-containing Dulbecco's Modified Eagle Medium (D-MEM) with DNase (0.2 mg/ml) for three times. The cells were plated onto laminin (10 μg/ml) coated 96-well plate ([…]) in a neuronbasal medium supplemented with B27 (Gibco), 2 mM glutamine and 1x antibiotic antimycotic solution and kept in a humidified 5% CO2 atmosphere. […]
The products of the reactions shown in FIG. 3 were both applied to two or three sister cultured wells on day 12. Cell viability was evaluated by morphological criteria and colorimetric MTT (Tetrazolium) on day 16. […] The plates were read on a BT 1000 microreader, using a test wavelength of 550 nm, a reference wavelength of 650 nm. The plates were routinely read within 20 minutes of addition of DMSO.

Aβ1-42 [4] = target: T1, Aβ1-42; assay: Aβ filament assembly monitored by light scattering; assay type: biochemical; conditions: Aβ1-42 80 μM, molar ratio 200:1, light scattering
Description: Biosynthetic Aβ1-42 was incubated at a concentration of 80 μM in 100 μl of 10 μM Tris-HCl; pH 7.0 at 22° C. for 8, 24 and 48 hours. Assembly of Aβ into high molecular weight filamentous structures was monitored by light scattering at […]. Light scattering increases linearly according to the size and number of filaments formed. The results are shown in FIG. 1 and indicate that Aβ peptide spontaneously forms amyloid filaments, starting after about 8 hours of incubation; the rate of formation levels off after about 24 hours. The Aβ1-42 was incubated, as described in Example 1, in the presence or absence of α1 -antichymotrypsin or a control protein (BSA) at a molar ratio of 200:1. Filament assembly was monitored by light scattering. The results are shown in FIG. 2 and indicate that α1 -ACT results in the rate of filament formation being enhanced about ten-fold over the controls. Formation of filaments was essentially complete after about 8 hours.

[5] = test system: primary human cortical neurons; assay: Promotion of Aβ1-42 neurotoxicity by pathological chaperones, MTT assay (Example 12); assay type: cell-based; conditions: Aβ1-42 80 μM with 0.4 μM protein, 48 hours at 22° C.; MTT on day 4
Description: Biosynthetic Aβ1-42 (80 μM) was incubated with ACT (CalBiochem), purified human apoE and individual control protein (0.4 μM) in 100 μl of 10 μM Tris-HCl, pH 7.0 for 48 hours at 22° C. The 12.5 μl of each reaction product was then added to 14 days old primary human cortical neurons in culture. The cell viability was measured by a colorimetric MTT (Sigma) assay on day 4. Data are expressed ±S.E.M. in FIGS. 7-9. ACT and apoE4 induced a 2- and 4-fold increase in neurotoxicity of Aβ1-42, respectively. […] Since Aβ1-42 is prone to self-aggregate into filaments, only aliquots of each preparation of Aβ1-42 devoid of filaments, as judged by electron microscopy, were used for experiments.
Method of cell culture: The cortical neuron cultures were prepared as follows. Frontal lobes of brain were removed from an electively terminated human fetus on gestational age of 18-21 weeks. Cortical cells were dissociated in serum-free medium containing 0.2% trypsin (Sigma) and 25 μg/ml DNase I (Sigma) and plated 4×10^4 cells per well (96-well plate, Falcon) precoated with 10 μg/ml laminin (Gibco). The cells were cultured in DMEM (Gibco) supplemented with 10% fetal calf serum (Gibco) and 2 mM glutamine. Cultures were kept at 37° C. in a 7% CO2 atmosphere. After day 4 in vitro, non-neuronal cell division was halted by exposure to 10^-5 M cytosine arabinoside. […]

Molecule | promotion of Aβ filament formation (in words) (Aβ1-42 [1]) | neurotoxicity of the reaction mixture of Aβ plus the substance (human cortical neurons) | also measured
ApoAI: Apolipoprotein AI | inactive | – | –
ApoAII: Apolipoprotein AII | inactive | – | –
Aβ1-28: peptide corresponding to amino acids 1-28 of the N-terminal of Aβ peptide | – | – | effect on the ability of α1-ACT to inhibit chymotrypsin (α1 -ACT [2]): suppress the ability of α1 -ACT to inhibit chymotrypsin; complex formation with α1-ACT (α1 -ACT [3]): form stable complexes
Aβ: Alzheimer's β-peptide, 39-42 amino acid peptide; biosynthetic Aβ1-42 used in the examples [reference compound] | – | neurotoxic | –
B1 | promote the formation of Aβ filaments | greatest neurotoxicity | enhancement of the rate of Aβ filament formation over the controls (Aβ1-42 [4]): at least ten; also recorded: about ten; increase in neurotoxicity of Aβ1-42 [5]: 2 fold
